According to patent US20210113687A1, “METHODS FOR TREATING INFLAMMATION” (NEW YORK UNIVERSITY, priority 2013, published 2021):

Biological target: netrin-1 secreted by mouse macrophages (conditioned medium of oxLDL-, CoCl2-, HIF-1alpha- or palmitate-treated macrophages) (mouse) (UniProt O09118)
Test: cell-based or functional assay

inhibition of migration of naive macrophages to CCL19 by Ntn1+/+ conditioned medium with UNC5b-Fc: 25%
Substance: recombinant rat UNC5b-Fc chimera (cat #1006-UN, R&D Systems) (from UniProt O08722 27-373) (Fc fusion)
